Results: patent publication US20230279064A1

Molecular target: human collagen (Sigma cat. no. C5483) (human)
Experiment: ELISA on immobilised human collagen (FIG. 9)

Sequence of human collagen (Sigma cat. no. C5483) (human) (P02452 162-1218, chain 1 of 2): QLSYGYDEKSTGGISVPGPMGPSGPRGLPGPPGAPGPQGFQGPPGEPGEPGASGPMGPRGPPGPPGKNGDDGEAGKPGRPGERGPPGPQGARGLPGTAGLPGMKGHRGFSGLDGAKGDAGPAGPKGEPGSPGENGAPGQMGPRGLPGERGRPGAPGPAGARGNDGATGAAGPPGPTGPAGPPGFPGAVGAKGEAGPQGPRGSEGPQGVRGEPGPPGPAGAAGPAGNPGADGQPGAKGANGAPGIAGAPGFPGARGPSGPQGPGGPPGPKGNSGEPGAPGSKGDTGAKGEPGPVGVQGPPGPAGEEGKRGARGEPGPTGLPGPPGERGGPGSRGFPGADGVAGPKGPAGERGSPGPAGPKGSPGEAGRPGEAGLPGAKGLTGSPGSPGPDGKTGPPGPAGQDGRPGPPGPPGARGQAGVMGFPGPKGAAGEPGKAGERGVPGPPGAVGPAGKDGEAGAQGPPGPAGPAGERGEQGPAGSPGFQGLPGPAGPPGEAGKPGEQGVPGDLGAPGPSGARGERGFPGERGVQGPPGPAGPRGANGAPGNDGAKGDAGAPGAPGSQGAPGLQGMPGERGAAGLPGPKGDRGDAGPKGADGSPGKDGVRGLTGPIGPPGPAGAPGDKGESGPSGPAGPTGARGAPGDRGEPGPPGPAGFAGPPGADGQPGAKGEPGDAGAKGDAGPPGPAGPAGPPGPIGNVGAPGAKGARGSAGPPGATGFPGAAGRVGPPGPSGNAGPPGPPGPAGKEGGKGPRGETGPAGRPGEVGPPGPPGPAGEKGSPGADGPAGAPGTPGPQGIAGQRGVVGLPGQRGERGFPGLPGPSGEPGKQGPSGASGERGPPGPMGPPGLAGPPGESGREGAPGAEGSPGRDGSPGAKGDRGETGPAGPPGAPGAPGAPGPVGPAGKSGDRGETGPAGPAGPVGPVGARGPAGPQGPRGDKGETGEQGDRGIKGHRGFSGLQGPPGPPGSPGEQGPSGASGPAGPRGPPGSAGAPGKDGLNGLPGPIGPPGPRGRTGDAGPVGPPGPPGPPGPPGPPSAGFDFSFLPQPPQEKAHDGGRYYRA
Sequence of human collagen (Sigma cat. no. C5483) (human) (P08123 80-1119, chain 2 of 2, further chain): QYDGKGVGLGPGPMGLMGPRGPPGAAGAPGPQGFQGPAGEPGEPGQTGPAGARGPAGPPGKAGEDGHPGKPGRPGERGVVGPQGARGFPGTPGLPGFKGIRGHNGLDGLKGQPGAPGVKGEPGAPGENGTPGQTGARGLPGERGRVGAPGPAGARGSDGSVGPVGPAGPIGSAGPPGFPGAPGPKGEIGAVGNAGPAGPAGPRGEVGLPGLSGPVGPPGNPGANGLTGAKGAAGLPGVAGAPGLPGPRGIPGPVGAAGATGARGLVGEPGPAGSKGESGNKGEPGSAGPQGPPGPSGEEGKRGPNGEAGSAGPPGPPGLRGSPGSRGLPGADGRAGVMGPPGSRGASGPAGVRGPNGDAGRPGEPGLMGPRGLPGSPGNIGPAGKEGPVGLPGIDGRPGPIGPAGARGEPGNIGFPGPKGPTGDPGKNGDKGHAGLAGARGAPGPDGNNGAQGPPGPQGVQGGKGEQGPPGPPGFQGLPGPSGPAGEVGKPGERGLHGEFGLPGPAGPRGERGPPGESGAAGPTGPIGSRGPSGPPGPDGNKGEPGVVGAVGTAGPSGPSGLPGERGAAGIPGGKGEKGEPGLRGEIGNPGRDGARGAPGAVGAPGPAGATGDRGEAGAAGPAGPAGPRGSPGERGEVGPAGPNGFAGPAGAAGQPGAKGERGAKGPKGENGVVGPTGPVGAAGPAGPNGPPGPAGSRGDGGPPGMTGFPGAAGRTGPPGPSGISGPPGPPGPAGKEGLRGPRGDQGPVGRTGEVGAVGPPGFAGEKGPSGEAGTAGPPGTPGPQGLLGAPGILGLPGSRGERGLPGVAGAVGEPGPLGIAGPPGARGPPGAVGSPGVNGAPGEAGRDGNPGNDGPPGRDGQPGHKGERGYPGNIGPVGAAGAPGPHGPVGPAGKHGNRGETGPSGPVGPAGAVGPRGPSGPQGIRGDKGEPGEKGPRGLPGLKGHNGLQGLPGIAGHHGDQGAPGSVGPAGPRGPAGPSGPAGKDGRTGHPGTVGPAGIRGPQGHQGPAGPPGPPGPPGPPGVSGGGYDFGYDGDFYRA

fold increase in non-specific binding to collagen: 1.4 fold
Substance: GAIM scaffold variant with the Q128H mutation (Fc fusion)
